Laboratory results reported in patent US20110287512.

Assays:
[1] = tested on: ZFN7263 (host) (artificial); experiment: cell_activity
[2] = tested on: ZFN7263 linker TGGGGSQKP center linker F2-F3 TGSQKP replaced by TGGGGSQKP (artificial); experiment: cell_activity; conditions: normalized yeast MEL-1 score
[3] = tested on: ZFN7263 linker TPLCQRPMKQKP (artificial); experiment: cell_activity; conditions: yeast, paired with 7264 ZFN
[4] = tested on: ZFN7263 linker TPNRCPPTKP (artificial); experiment: cell_activity; conditions: yeast, paired with 7264 ZFN
[5] = tested on: ZFN7263 linker TPRPPIPKP center linker F2-F3 TGSQKP replaced by TPRPPIPKP (artificial); experiment: cell_activity; conditions: normalized yeast MEL-1 score
[6] = tested on: ZFN7263 linker TQRPQIPPKP (artificial); experiment: cell_activity; conditions: yeast, paired with 7264 ZFN
[7] = tested on: ZFN7263 linker TYPRPLLAKP (artificial); experiment: cell_activity; conditions: yeast, paired with 7264 ZFN
[8] = tested on: ZFP8196 (host, center linker TGEKP) (artificial); experiment: ELONA; conditions: normalized ELISA score
[9] = tested on: ZFP8196 linker 1c center linker F2-F3 TGEKP replaced by THPRAPIPKP (artificial); experiment: ELONA; conditions: normalized ELISA score
[10] = tested on: ZFP8196 linker 1d center linker F2-F3 TGEKP replaced by TPNRRPAPKP (artificial); experiment: ELONA; conditions: normalized ELISA score
[11] = tested on: ZFP8196 linker 1f center linker F2-F3 TGEKP replaced by TYPRPIAAKP (artificial); experiment: ELONA; conditions: normalized ELISA score
[12] = tested on: ZFP8196 linker LRQKDERP center linker F2-F3 TGEKP replaced by LRQKDERP (artificial); experiment: ELONA; conditions: normalized ELISA score
[13] = tested on: ZFP8196 linker TCPRPPTRKP center linker F2-F3 TGEKP replaced by TCPRPPTRKP (artificial); experiment: ELONA; conditions: normalized ELISA score
[14] = tested on: ZFP8196 linker TEPRAKPPKP center linker F2-F3 TGEKP replaced by TEPRAKPPKP (artificial); experiment: ELONA; conditions: normalized ELISA score
[15] = tested on: ZFP8196 linker TGEGGKP center linker F2-F3 TGEKP replaced by TGEGGKP (artificial); experiment: ELONA; conditions: normalized ELISA score
[16] = tested on: ZFP8196 linker TGGGGSQKP center linker F2-F3 TGEKP replaced by TGGGGSQKP (artificial); experiment: ELONA; conditions: normalized ELISA score
[17] = tested on: ZFP8196 linker TGYSIPRPKP center linker F2-F3 TGEKP replaced by TGYSIPRPKP (artificial); experiment: ELONA; conditions: normalized ELISA score
[18] = tested on: ZFP8196 linker TPDAPKPKP center linker F2-F3 TGEKP replaced by TPDAPKPKP (artificial); experiment: ELONA; conditions: normalized ELISA score
[19] = tested on: ZFP8196 linker TPDRPISTCKP center linker F2-F3 TGEKP replaced by TPDRPISTCKP (artificial); experiment: ELONA; conditions: normalized ELISA score
[20] = tested on: ZFP8196 linker TPGLHRPKP center linker F2-F3 TGEKP replaced by TPGLHRPKP (artificial); experiment: ELONA; conditions: normalized ELISA score
[21] = tested on: ZFP8196 linker TPSHTPRPKP center linker F2-F3 TGEKP replaced by TPSHTPRPKP (artificial); experiment: ELONA; conditions: normalized ELISA score
[22] = tested on: ZFP8196 linker TSPRLPAPKP center linker F2-F3 TGEKP replaced by TSPRLPAPKP (artificial); experiment: ELONA; conditions: normalized ELISA score
[23] = tested on: ZFP8196 linker TSSPRSNAKP center linker F2-F3 TGEKP replaced by TSSPRSNAKP (artificial); experiment: ELONA; conditions: normalized ELISA score
[24] = tested on: ZFP8196 linker TVSPAPCRSKP center linker F2-F3 TGEKP replaced by TVSPAPCRSKP (artificial); experiment: ELONA; conditions: normalized ELISA score
[25] = tested on: ZFP8196 linker LRQKDERP (artificial)
[26] = tested on: ZFP8196 linker TCPRPPTRKP (artificial)
[27] = tested on: ZFP8196 linker TEPRAKPPKP (artificial)
[28] = tested on: ZFP8196 linker TGEGGKP (artificial)
[29] = tested on: ZFP8196 linker TGGGGSQKP (artificial)
[30] = tested on: ZFP8196 linker TGYSIPRPKP (artificial)
[31] = tested on: ZFP8196 linker TPDAPKPKP (artificial)
[32] = tested on: ZFP8196 linker TPDRPISTCKP (artificial)
[33] = tested on: ZFP8196 linker TPGLHRPKP (artificial)
[34] = tested on: ZFP8196 linker TPSHTPRPKP (artificial)
[35] = tested on: ZFP8196 linker TSPRLPAPKP (artificial)
[36] = tested on: ZFP8196 linker TSSPRSNAKP (artificial)
[37] = tested on: ZFP8196 linker TVSPAPCRSKP (artificial)
[38] = tested on: ZFP7263 (host, center linker TGSQKP) (artificial); experiment: ELONA; conditions: normalized ELISA score
[39] = tested on: ZFP7263 linker TQRPQIPPKP center linker F2-F3 TGSQKP replaced by TQRPQIPPKP (artificial); experiment: ELONA; conditions: normalized ELISA score
[40] = tested on: ZFP7263 linker TYPRPLLAKP center linker F2-F3 TGSQKP replaced by TYPRPLLAKP (artificial); experiment: ELONA; conditions: normalized ELISA score
[41] = tested on: ZFP7263 linker LRQKDERP (artificial)
[42] = tested on: ZFP7263 linker TGEGGKP (artificial)
[43] = tested on: ZFP7263 linker TGGGGSQKP (artificial)
[44] = tested on: ZFP7263 linker TPLCQRPMKQKP (artificial)
[45] = tested on: ZFP7263 linker TPNRCPPTKP (artificial)
[46] = tested on: ZFP7263 linker TPRPPIPKP (artificial)

## ACTCTGTGGAAG (double strand) [7263 yeast half-site 0-bp gap]
[1]; yeast MEL-1 score, with invariant 7264 ZFN partner (reference)
  activity: 1
[2]
  activity: 0.11
[3]
  activity (normalized MEL-1): 0.04
[4]
  activity (normalized MEL-1): 0.05
[5]
  activity: 0.04
[6]
  activity (normalized MEL-1): 0.04
[7]
  activity (normalized MEL-1): 0.05

## ACTCTGTTGGAAG (double strand) [7263 yeast half-site gap T]
[1]; normalized yeast MEL-1 score
  activity: 0.06
[2]
  activity: 0.31
[3]
  activity (normalized MEL-1): 1.19
[4]
  activity (normalized MEL-1): 1.59
[5]
  activity: 1.4
[6]
  activity (normalized MEL-1): 1.19
[7]
  activity (normalized MEL-1): 1.06

## TTAGATAAACTGTCAAAAGGCTATC (double strand) [8196 target gap T]
[8]
  binding signal: 0.01
[9]
  binding signal: 0.6
[10]
  binding signal: 0.52
[11]
  binding signal: 0.64
[12]
  binding signal: 0.08
[13]
  binding signal: 0.62
[14]
  binding signal: 0.93
[15]
  binding signal: 0.03
[16]
  binding signal: 0
[17]
  binding signal: 0.55
[18]
  binding signal: 0.95
[19]
  binding signal: 0.47
[20]
  binding signal: 0.81
[21]
  binding signal: 0.8
[22]
  binding signal: 0.81
[23]
  binding signal: 0.25
[24]
  binding signal: 0.19

## TTAGATAAACTGTCCAAAAGGCTATC (double strand) [8196 target gap TC]
[8]
  binding signal: 0
[9]
  binding signal: 0.01
[10]
  binding signal: 0.01
[11]
  binding signal: 0.01
[25]
  binding signal (normalized ELISA): 0
[26]
  binding signal (normalized ELISA): 0.01
[27]
  binding signal (normalized ELISA): 0.02
[28]
  binding signal (normalized ELISA): 0
[29]
  binding signal (normalized ELISA): 0
[30]
  binding signal (normalized ELISA): 0.01
[31]
  binding signal (normalized ELISA): 0.01
[32]
  binding signal (normalized ELISA): 0.03
[33]
  binding signal (normalized ELISA): 0.01
[34]
  binding signal (normalized ELISA): 0.02
[35]
  binding signal (normalized ELISA): 0.01
[36]
  binding signal (normalized ELISA): 0.01
[37]
  binding signal (normalized ELISA): 0.02

## TTAGCCACTCTGACTGGAAGTGTATC (double strand) [7263 target gap AC]
[38]
  binding signal: 0.01
[39]
  binding signal: 0.03
[40]
  binding signal: 0.03
[41]
  binding signal (normalized ELISA): 0.01
[42]
  binding signal (normalized ELISA): 0.01
[43]
  binding signal (normalized ELISA): 0.01
[44]
  binding signal (normalized ELISA): 0.08
[45]
  binding signal (normalized ELISA): 0.03
[46]
  binding signal (normalized ELISA): 0.02
